Experimental data published in US9109007B2, “MHC-I restricted epitopes containing non-natural amino acid residues” (Purdue Pharma L.P., priority 2010, dated 2015).
Where no end group is shown, it is not given here. [ ]: non-standard residue; d: D form. Gly(cPent) = N[C@H](C(=O)O)C1CCCC1

Target: T1, HLA-A2 (Homo sapiens, UniProt P04439, D140Y/D185E/D98H/E176V/E277Q/G131W/G231S/I119V/I121R/I166T/I218V/L300P/N151K/N90K/P208A/P217A/Q86G/Q94H/R138H/R169H)
T1 construct: Soluble Class I/Plate-Based Assays; purchased Beckman Coulter
Experiment: iTopia plate-based assay: stability (half-life) of peptide/HLA-A2 complexes
Type: binding
Details: for stability of complex with HLA-A2 compared with the corresponding native survivin peptide: Survivin peptide derivatives
Procedure: II. Soluble Class I/Plate-Based Assays The plate-based assay, named iTopia™, is a commercial assay (Beckman Coulter). The assay is performed in wells of microtiter plates. At the outset of the assay, MHCI complexes (properly folded MI-IC heavy chain, beta 2 microglobulin and a place-holder peptide), are tethered to streptavidin-coated microplate wells. (Proper formation/folding of the MHC complex may be determined by binding of an anti-HLA-ABC antibody). A buffer designed to unfold and dissociate the complex was added to each test well, allowed to incubate, and the place holder peptide and beta 2 microglobulin were washed away. Escalating concentrations of the test peptide, along with additional beta 2 microglobulin, were added to each well and incubated in a buffer designed to promote refolding of complexes. Plates were incubated overnight at 21° C. Properly folded MHCI complex molecules were detected with a fluorescently labeled antibody selected based on its ability to only bind properly folded MHCI complexes. Binding was reported relative to a standardized positive control peptide. Relative affinities were reported as ED50, and are defined herein as the concentration of peptide required to achieve half maximal binding of the positive control. […] Assessment of Peptide/HLA-A0201 Complex Stability. MHCI complexes were dissociated in each test well using stripping buffer, and the place-holder peptide and beta 2 microglobulin were washed away. 100 uM of the test peptide was added to appropriate wells along with additional beta 2 microglobulin and the anti-HLA ABC antibody, and the plates were incubated overnight at 21° C. Plates were washed, and fresh buffer was added to each well. Plates were shifted to 37° C., and the appropriate wells were read at 0, 0.5, 1, 1.5, 2, 4, 6 and 8 hours.

Substance | stability of complex with HLA-A2 compared with the corresponding native survivin peptide | increase in the half life of the HLA-A2 peptide complex compared to the native survivin peptide (Survivin peptide derivative vs native survivin peptide)
I-[cpg]-TFKNWPF (I[Gly(cPent)]TFKNWPF) | more stable complex | –
K-[cpg]-RRAIEQL (K[Gly(cPent)]RRAIEQL) | more stable complex | greater than 20 fold
